From PMC8464078

Experiments:
[1] = target: Xenopus Rif1–CTD S2058D (Xenopus); experiment: pull-down
[2] = target: Xenopus Rif1–CTD S2058A (Xenopus); experiment: pull-down

Which results are given for “protein phosphatase 1 (PP1), gamma catalytic subunit (from UniProt P36874 1-323) (enzyme)”?
PP1 bound, percent of wild type Rif1–CTD [1]: 9%; PP1 bound, percent of wild type Rif1–CTD [2]: 54%
